Data on 41 sequences can be found in the nanobody polyreactivity screen of Harvey et al. (2022).

This data set is described as follows: yeast display, Sf9 membrane polyspecificity reagent, FACS + sequencing; frameworks hold sequencing errors. In short, it runs like this: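 Galactose induction of a Saccharomyces cerevisiae BJ5465 synthetic nanobody display library ran 36–48 hours. The cells were then stained for 1 hour at 4 °C with 10% biotinylated, detergent-solubilized Sf9 membrane reagent, pulled down on streptavidin microbeads and FACS-sorted into low and high (top ~1%) gates on expression and reagent-binding fluorescence. Labels for polyreactivity follow the gate of origin.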
As for “QVQLVESGGGLVQAGGSLRLSCAASGRIFSRNAMGWYRQAPGKERELVAAITSGGSTYYADSVKGRFTISRDNAKNTVYLQMNSLKPEDTAVFYCAKRLTYYSWYHRYDYWGQGTQVTVLS”, the “polyreactivity (PSR sort gate)” value was “high polyreactivity”.

For “QVQLVESGGGLVQAGGSLRLSCAASGRIFSRYAMGWYRQAPGKERELVAAINKSGGSTYYADSVKGRFTISRDNAKNTVYLQMNSLKPEDTAVYYCATDDPVYDYDYWGQGTQVTVSS”, the “polyreactivity (PSR sort gate)” value is given as “high polyreactivity”.

Turning to “QVQLVESGGGLVQAGGSLRLSCAASGRIFSRYAMGWYRQAPGKERELVAAISRRGGSTYYADSVKGRFTISRDNAKNTVYLQMNSLKPEDTAVYYCAADFSPYYDLATEISDYWGQGTQVTVSS”, the “polyreactivity (PSR sort gate)” value is listed as “high polyreactivity”.

For the sequence “QVQLVESGGGLVQAGGSLRLSCAASGRIFSRYAMGWYRQAPGKERELVAAITQSGTSTYYADSVKGRFTISRDNAKNTVYLQMKSLKPEDTAVYYCNAYRQYRYDYWGQGTQVTVSS”, the “polyreactivity (PSR sort gate)” value is “low polyreactivity”.

With “QVQLVESGGGLVQAGGSLRLSCAASGRIFSRYAMGWYRQAPGKEREMVAAIRSNGGRTYYADSVKGRFTISRDNAKNTVYLQMNSLKPEDTAVYYCAAAGGGKVSYRDYDYWGQGTQVTVSS”, the “polyreactivity (PSR sort gate)” value was “high polyreactivity”.

Consider “QVQLVESGGGLVQAGGSLRLSCAASGRIFSRYAMGWYRQAPGTERELVAAINKSGGSTYYADSVKGRFTISRDNAKNTVYLQMNSLKPEDTAVYYCNAVYYWYKGDYWGQGTQVTVSS”, for which the “polyreactivity (PSR sort gate)” value is given as “high polyreactivity”.

As to “QVQLVESGGGLVQAGGSLRLSCAASGRIFSRYAMGWYRQAPGTERELVAAISASGGSTYYADSVKGRFTISRDNAKNTVYLQMNSLKPEDTAVYYCNAYQTSTTLFPGYGYWGQGTQVTVSS”, the “polyreactivity (PSR sort gate)” value is reported as “low polyreactivity”.

On to “QVQLVESGGGLVQAGGSLRLSCAASGRIFSRYTMGWYRQAPGKERELVAAISSRGGSTYYADSVKGRFTISRDNAKNTVYLQMNSLKPEDTAVYYCNTPSYSGSSPYDHWGQGTQVTVSS”, for which the “polyreactivity (PSR sort gate)” value was “high polyreactivity”.

For the sequence “QVQLVESGGGLVQAGGSLRLSCAASGRIFSRYTMGWYRQAPGKERELVAGITRGGGSTYYADSVKGRFTISRDNAKNTVYLQMNSLKPEDNAVYYCNAETSYAWWHYDYWGQGTQVTVSS”, the “polyreactivity (PSR sort gate)” value was “low polyreactivity”.

On to “QVQLVESGGGLVQAGGSLRLSCAASGRIFSSNAMGSYRQAPGKERELVAGISIRGGSTYYADSVKGRFTISRDNAKNTVYLQMNSLKPEDTAVYYCAKDGRRRRTFDYWGQGTQVTVSS”, for which the “polyreactivity (PSR sort gate)” value is “high polyreactivity”.

In the case of “QVQLVESGGGLVQAGGSLRLSCAASGRIFSSYALGWYRQARGKERELVAAISASGGRTYYADSVKGRCTISRDNAKNTVYLQMNSLKPEDTAVYYCNRGYISGSVVERYYWGQGTQVTVSS”, the “polyreactivity (PSR sort gate)” value was “high polyreactivity”.

With “QVQLVESGGGLVQAGGSLRLSCAASGRIFSSYAMGWYRQAPGKERELVAAISGSGGRTYYADSVKGRFTISRDNAKNTVYLQMNSLKPEDTAVYYCNARRRSPYSTGVAYDYWGQGTQVTVSS”, the “polyreactivity (PSR sort gate)” value is recorded as “high polyreactivity”.

Turning to “QVQLVESGGGLVQAGGSLRLSCAASGRIFSSYAMGWYRQAPGKERELVAAISSSGGNTYYADSVKGRFTISRDNAKNTVYLQMNSLKPEDTAVYYCNTRWVHRDWYDYWGLGTQVTVSS”, the “polyreactivity (PSR sort gate)” value is given as “high polyreactivity”.

“QVQLVESGGGLVQAGGSLRLSCAASGRIFSSYAMGWYRQAPGKERELVAANSRSGARTYYADSVKGRFTISRDNAKNTVYLQMNSLKPEDTAVYYCAAVTVAGYDYWGQGTQVTVSS”: the “polyreactivity (PSR sort gate)” value is recorded as “high polyreactivity”.

As to “QVQLVESGGGLVQAGGSLRLSCAASGRIFSTNAMGWYRPAPGKERELVAAINWSTGSYVLRRSVKGRFTISRDTAKNTVYLQMNSLKPEDTAVYYCAATWRNPGKATQRYYYWGQGTQVTVSS”, the “polyreactivity (PSR sort gate)” value is reported as “high polyreactivity”.

Consider “QVQLVESGGGLVQAGGSLRLSCAASGRIFSTYAMGWYRQAPGKERELVAAINKIGGSTYYADSVKGRITISRDNAKNTVYLQMNSLKPEDTAVYYCAADAPYYPVRRYYYWGQGTQVTVSS”, for which the “polyreactivity (PSR sort gate)” value is reported as “low polyreactivity”.

With “QVQLVESGGGLVQAGGSLRLSCAASGRIFSTYAMGWYRQAPGKERELVAAITNSAGSTYYADSVKGRFTISRDNAKNTVYLHMNSLKPEDTALYYCATGWSRISYGFDYWGQGTLVTVSS”, the “polyreactivity (PSR sort gate)” value is reported as “low polyreactivity”.

Take “QVQLVESGGGLVQAGGSLRLSCAASGRIFSTYAMGWYRQAPGKERELVAAITWDGRTYYADSVKGRFTISRDNAKNTVYLQMNSLKPEDTAVYYCAADGEYRYDWEYESWGQGTQVTVSS”: the “polyreactivity (PSR sort gate)” value is listed as “low polyreactivity”.

Regarding “QVQLVESGGGLVQAGGSLRLSCAASGRIFSVYAMGWYRQAPGKEREFVAAITKGGVGTYYADSVKGRFTISRDNAKNTVSLQMNCLKPEDTAVYYCAARGTSRQTWLFRYNWNDYWGQGTQVTVSS”, the “polyreactivity (PSR sort gate)” value is reported as “high polyreactivity”.

As for “QVQLVESGGGLVQAGGSLRLSCAASGRIFSVYAMGWYRQAPGKEREFVAAITKGGVGTYYADSVKGRFTISRDNAKNTVYLQMNSLKPEDTAVYYGAARHYYGADRYYSWGQGTQVTVSS”, the “polyreactivity (PSR sort gate)” value is listed as “high polyreactivity”.

As to “QVQLVESGGGLVQAGGSLRLSCAASGRIFSVYAMGWYRQEPGKERELVAAITRNGATTYYADSVKGRFTISRDNAKNTVYLQMNSLKPEDTAVYYCAARPLFASRTKYGYWGQGTQVTVSS”, the “polyreactivity (PSR sort gate)” value is recorded as “high polyreactivity”.

With “QVQLVESGGGLVQAGGSLRLSCAASGRIFSVYTKGWYRQAPGKERELVATISSGGRTNYADSVKGRFTISRDNAKNTVYLQINSLKPEDSAVYYCAAVPYGFVGYDDYWGQGSQVTVSS”, the “polyreactivity (PSR sort gate)” value is “low polyreactivity”.

With “QVQLVESGGGLVQAGGSLRLSCAASGRIFSVYTMGLYRQAPGKERELGAAISSGGRTYYADSVKGRFTISRDNAKNTVYLQMNSLKPEDTAVYYCAAGSHYAFYYWGQGTQVTVSS”, the “polyreactivity (PSR sort gate)” value is “high polyreactivity”.

As to “QVQLVESGGGLVQAGGSLRLSCAASGRIFSWYAMGWYRQAPGKERELVAAITVRGSTYYADSVKGRFTISRDNAKNTVYLQMNSLKPEDTAVYYCAAGGYPGTTYYGYDYWGQGTQVTVSS”, the “polyreactivity (PSR sort gate)” value was “low polyreactivity”.

As for “QVQLVESGGGLVQAGGSLRLSCAASGRIFSWYAMGWYRQAPGKERELVARITSGVSTNYADSVKGRFTISRDNEKNTVYLQMNSLKPEDTAVYDCAADDYSCLYYSSTYRYEYWGQGTQVTVSS”, the “polyreactivity (PSR sort gate)” value is given as “low polyreactivity”.

“QVQLVESGGGLVQAGGSLRLSCAASGRIFSYNAMGWYRQAPGKERDLVASISGGGSTYADSVKGRFTISRDNAKNTVYLQMNRLKPADTAVYYCNAVHFSYEYDYWGQGTQVTVSS”: the “polyreactivity (PSR sort gate)” value is “high polyreactivity”.

Consider “QVQLVESGGGLVQAGGSLRLSCAASGRIFSYNARGWYRQAPGKEWELVAAISSGGSTYYADSVKGRFTISRDNAKKTVYLQMNSLKPEDTAVYYCAADRRYYSDLYYWGQGTQVTVSS”, for which the “polyreactivity (PSR sort gate)” value was “low polyreactivity”.

As to “QVQLVESGGGLVQAGGSLRLSCAASGRIFSYNTMGWYRQAPGKERELVAAISCSGGSTSYADSVKGRFTISRDNAKNTVYLQMNSLKPEDTAVYYCATGSKRNPFYRGNYWGQGTQVTVSS”, the “polyreactivity (PSR sort gate)” value is listed as “low polyreactivity”.

For “QVQLVESGGGLVQAGGSLRLSCAASGRIFSYYAMGWSRQAPGNERELVAAITWSGGRTYYADSVKGRFTISRDNAKNTVYLQMNSLNPEDTAVYYCAADYYYGSLWDNKLGYWGQGTQVTVSS”, the “polyreactivity (PSR sort gate)” value is “high polyreactivity”.

For “QVQLVESGGGLVQAGGSLRLSCAASGRIFSYYAMGWYRQAPGKDRELVAAISRSGGRTYYADSVKGRFTISRDNAKNTVYLQMNSLNPEDTAVYYCAATFSRGYDYWGQGTQVTVSS”, the “polyreactivity (PSR sort gate)” value is reported as “high polyreactivity”.

Turning to “QVQLVESGGGLVQAGGSLRLSCAASGRIFSYYAMGWYRQAPGKERELVAAISRSGVRTYYADSVKGRFTISRDNAKNTVYLQMNSLKAEDTAVYYCAASGKRFAYIKGRSRPAYGYDYWGQGTQVTVSS”, the “polyreactivity (PSR sort gate)” value is reported as “high polyreactivity”.

“QVQLVESGGGLVQAGGSLRLSCAASGRIFSYYAMGWYRQAPGKERELVAAISRTGGTTYYADSVKGRFTISRDTAKNTVFLQMNSLKPEDTAVYYCNAVKAPYLRYDYWGQGTQVTVSS”: the “polyreactivity (PSR sort gate)” value is “high polyreactivity”.

“QVQLVESGGGLVQAGGSLRLSCAASGRIFSYYAMGWYRQAPGKERELVASITWSGGSTYYADSVKGRFTISRDYAKNTVYLQMNRLKPEDTAVYYCNTAVLAPYDSGYWGQGTQVTVSS”: the “polyreactivity (PSR sort gate)” value was “low polyreactivity”.

For “QVQLVESGGGLVQAGGSLRLSCAASGRIFSYYDMGWYRQAPGKEREFVAGITWNGGSTYYADSVKGRFTISRDNAKNTVYLQMNSLKPEDTAVYYCAAGVWRTRDWTYYYWGQGTQVTVSS”, the “polyreactivity (PSR sort gate)” value is listed as “high polyreactivity”.

As to “QVQLVESGGGLVQAGGSLRLSCAASGRIFSYYTMGWYRQAPGKERELVAAITSGDSTNYADSVKGRFTISRDNAKNTVYLQMNSLKPEDTAVYYCNARYSGWRSRVGSSHRPDGYWGQGTQVTVSS”, the “polyreactivity (PSR sort gate)” value is given as “high polyreactivity”.

Regarding “QVQLVESGGGLVQAGGSLRLSCAASGRIFTAYTMGWYRQAPGKERELVAAISTSGTSTYYADSVKGRFTISRDNAKNTVYLQMNSLKPEDTAVYYCATDYYYYPHSQYDYWGQGTQVTVSS”, the “polyreactivity (PSR sort gate)” value is given as “low polyreactivity”.

“QVQLVESGGGLVQAGGSLRLSCAASGRIFTCYAMGWYRQAPGKERELVAAISSAGRTYYADSVKGRFTISRDNAKNTVYLQMNSLKPEDSAVYYCAKVSKYRHFYTFDYWGQGTQVTVSS”: the “polyreactivity (PSR sort gate)” value was “high polyreactivity”.

“QVQLVESGGGLVQAGGSLRLSCAASGRIFTDYAMGWYRQAPGKERELVAAISSGGSTYYADSVKGRFTISRDNAKNTVYLQMNSLKPEDTAVYFCAAELFYGRSSSGYYYWGQGTQVTVSS”: the “polyreactivity (PSR sort gate)” value was “high polyreactivity”.

As to “QVQLVESGGGLVQAGGSLRLSCAASGRIFTGYAMGWYRQAPGKERELVAAISSSGGTTYYADSVKGRFTISRDNAKNTVYLQMNSLKPEDTAVYYCATDYSYSVDALKYLLYDYWGQGTQVTVSS”, the “polyreactivity (PSR sort gate)” value is reported as “low polyreactivity”.

As to “QVQLVESGGGLVQAGGSLRLSCAASGRIFTGYAMGWYRQAPGKEREVVAAISRGGSTNYADSVKGRFTISRDNAKNTVYLQMNSLKPEDTAVYYCAAGVHWDRGDYWGQGTQVNVSS”, the “polyreactivity (PSR sort gate)” value is “low polyreactivity”.

Regarding “QVQLVESGGGLVQAGGSLRLSCAASGRIFTGYVMGWYRQAPGKERELVAAITYTGGSTFYADSVKGRFTISRDNAKNTVYLQMNSLKPEDTAVYYCAADESPYFLDIVTYYEFDYWGQGTQVTVSS”, the “polyreactivity (PSR sort gate)” value is “low polyreactivity”.
